Test results from paper PMC11021425, “Salmonella manipulates macrophage migration via SteC-mediated myosin light chain activation to penetrate the gut-vascular barrier” (The EMBO Journal, 2024).

Biological target: Myl12a, biotinylated (murine) (UniProt Q6ZWQ9)
Assay: BLI

## SteC 194 aa–364 aa (domain or fragment)
  fold decrease of affinity: 10 fold
